Laboratory results taken from PMC6093632 (Science Advances, 2018).

Target: the molecule itself
Assay: cryo-EM structure

B1: full-length rat TRPV6 (natural protein, UniProt Q9R186 41-767, looked up)
chain: MGWSLPKEKGLILCLWNKFCRWFHRRESWAQSRDEQNLLQQKRIWESPLLLAAKENNVQALIKLLKFEGCEVHQKGAMGETALHIAALYDNLEAAMVLMEAAPELVFEPMTSELYEGQTALHIAVINQNVNLVRALLARGASVSARATGSVFHYRPHNLIYYGEHPLSFAACVGSEEIVRLLIEHGADIRAQDSLGNTVLHILILQPNKTFACQMYNLLLSYDGGDHLKSLELVPNNQGLTPFKLAGVEGNIVMFQHLMQKRKHIQWTYGPLTSTLYDLTEIDSSGDDQSLLELIVTTKKREARQILDQTPVKELVSLKWKRYGRPYFCVLGAIYVLYIICFTMCCVYRPLKPRITNRTNPRDNTLLQQKLLQEAYVTPKDDLRLVGELVSIVGAVIILLVEIPDIFRLGVTRFFGQTILGGPFHVIIVTYAFMVLVTMVMRLTNSDGEVVPMSFALVLGWCNVMYFARGFQMLGPFTIMIQKMIFGDLMRFCWLMAVVILGFASAFYIIFQTEDPDELGHFYDYPMALFSTFELFLTIIDGPANYDVDLPFMYSITYAAFAIIATLLMLNLLIAMMGDTHWRVAHERDELWRAQVVATTVMLERKLPRCLWPRSGICGREYGLGDRWFLRVEDRQDLNRQRIRRYAQAFQQQDDLYSEDLEKDSGEKLEMARPFGAYLSFPTPSVSRSTSRSSTNWDRLRQGALRKDLQGIINRGLEDGEGWEYQI
- stoichiometry N: 4 subunits
